Measured values as given in US20230235090A1 (HARBOUR BIOMED US, published 2023).

Key:
[1] = target: T1, human B7-H4 (human, UniProt Q7Z7D3 25-282); assay: FACS, SK-BR-3 cells [A]
T1 construct: whole, on cells; also called VTCN1; SK-BR-3 cell line highly expressing B7-H4
T1 sequence (looked up): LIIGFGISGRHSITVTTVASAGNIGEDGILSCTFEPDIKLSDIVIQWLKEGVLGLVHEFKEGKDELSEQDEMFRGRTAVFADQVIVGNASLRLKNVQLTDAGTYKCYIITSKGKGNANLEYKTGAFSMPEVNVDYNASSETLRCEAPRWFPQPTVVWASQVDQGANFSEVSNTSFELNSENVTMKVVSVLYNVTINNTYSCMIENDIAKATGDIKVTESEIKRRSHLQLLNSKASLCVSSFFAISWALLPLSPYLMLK
Description: (§1) This example is intended to investigate the in vitro binding activity of anti-human B7-H4 H2L2 monoclonal antibody to human/cynomolgus monkey/mouse B7-H4. Antibody binding experiments at the cellular level were conducted using a CHO-K1 cell strain overexpressing cynomolgus monkey B7-H4 (CHO-K1/cyno B7-H4, prepared in-house by Harbour Biomed), a CHO-K1 cell strain overexpressing mouse B7-H4 (CHO-K1/m B7-H4, prepared in-house by Harbour Biomed) and an SK-BR-3 cell line highly expressing human B7-H4 (ATCC® HTB-30). Briefly, the CHO-K1/cyno B7-H4 cells, CHO-K1/m B7-H4 cells or SK-BR-3 cells were digested and resuspended with PBS containing 2% BSA. The cell density was adjusted to 1×10⁶ cells/mL. […] The cells were incubated at 4° C. for 2 h away from light. Thereafter, the cells in each well were rinsed twice with 100 μL of pre-cooled PBS containing 2% BSA, and centrifuged at 500 g at 4° C. for 5 min, and then the supernatant was discarded. […] The plate was incubated away from light at 4° C. for 1 h. The cells in each well were rinsed twice with 100 μL of pre-cooled PBS containing 2% BSA, and centrifuged at 500 g at 4° C. for 5 min, and then the supernatant was discarded. Finally, the cells in each well were resuspended in 200 μL of pre-cooled PBS containing 2% BSA, and the fluorescence signal values were read using an ACEA Novocyte3000 flow cytometer.

[2] = target: T2, mouse B7-H4 (mouse, UniProt Q7TSP5 25-257); assay: FACS, CHO-K1/m B7H4 cells [C]
T2 construct: whole, on cells; also called CHO-K1/m B7-H4; CHO-K1/mB7-H4
T2 sequence (looked up): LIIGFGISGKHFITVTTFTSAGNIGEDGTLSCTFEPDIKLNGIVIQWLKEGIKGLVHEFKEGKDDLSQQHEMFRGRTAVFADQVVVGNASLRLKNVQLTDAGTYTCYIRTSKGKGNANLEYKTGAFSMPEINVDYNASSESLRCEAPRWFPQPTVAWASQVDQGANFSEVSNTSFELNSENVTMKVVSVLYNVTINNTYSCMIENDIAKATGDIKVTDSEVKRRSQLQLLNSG
Description: as §1

[3] = target: T3, cynomolgus monkey B7-H4 (cynomolgus monkey, UniProt A0A2K5U6P5 25-282); assay: FACS, CHO-K1/cyno B7H4 cells [B]
T3 construct: whole, on cells; also called CHO-K1/cyno B7-H4; CHO-K1/cynoB7H4
T3 sequence: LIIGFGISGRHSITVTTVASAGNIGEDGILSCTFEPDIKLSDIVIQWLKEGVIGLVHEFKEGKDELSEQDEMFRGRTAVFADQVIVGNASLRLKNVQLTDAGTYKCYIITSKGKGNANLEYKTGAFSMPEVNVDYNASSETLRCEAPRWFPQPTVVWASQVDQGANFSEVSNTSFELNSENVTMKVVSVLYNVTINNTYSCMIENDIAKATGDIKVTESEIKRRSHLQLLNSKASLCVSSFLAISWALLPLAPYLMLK
Description: as §1

[4] = target: T4, human 4-1BB (human, UniProt Q07011 24-255); assay: FACS, CHO-K1/hu 4-1BB cells [B]
T4 construct: whole, on cells; also called CD137; TNFRSF9
T4 sequence (Q07011 24-255): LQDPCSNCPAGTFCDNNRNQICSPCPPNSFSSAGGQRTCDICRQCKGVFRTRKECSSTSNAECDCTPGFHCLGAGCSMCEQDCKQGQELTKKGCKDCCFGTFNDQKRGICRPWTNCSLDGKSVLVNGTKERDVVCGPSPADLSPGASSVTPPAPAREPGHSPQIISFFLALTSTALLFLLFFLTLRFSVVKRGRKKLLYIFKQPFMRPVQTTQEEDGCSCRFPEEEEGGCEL
Description: (§2) This example is intended to investigate the in vitro binding activity of anti-human 4-1BB HCAb and H2L2 monoclonal antibodies to human and cynomolgus monkey 4-1BB. Antibody binding experiments at the cellular level were conducted using a CHO-K1 cell strain overexpressing human 4-1BB (CHO-K1-hu 4-1BB, Genescript) and a CHO-K1 cell strain overexpressing cynomolgus monkey 4-1BB (CHO-K1-cyno 4-1BB, Genescript). Briefly, the CHO-K1-hu 4-1BB and CHO-K1-cyno 4-1BB cells were digested and resuspended in DMEM complete medium, and the cell density was adjusted to 1×10⁶ cells/mL. […] The cells were incubated at 4° C. for 1 h away from light. Thereafter, the cells in each well were rinsed twice with 100 μL of pre-cooled PBS, and centrifuged at 500 g at 4° C. for 5 min, and then the supernatant was discarded. […] The plate was incubated away from light at 4° C. for 30 min. The cells in each well were rinsed twice with 100 μL of pre-cooled PBS, and centrifuged at 500 g at 4° C. for 5 min, and then the supernatant was discarded. Finally, the cells in each well were resuspended in 200 μL of pre-cooled PBS, and the fluorescence signal values were read using a BD FACS CANTOII.

[5] = target: T5, cynomolgus monkey 4-1BB (cynomolgus monkey); assay: FACS, CHO-K1/cyno 4-1BB cells [C]
T5 construct: whole, on cells; also called CHO-K1-cyno 4-1BB; CHO-K1/cyno4-1BB
Description: as §2

[6] = target: T4, human 4-1BB; assay: FACS, CHO-K1/hu 4-1BB cells [A]
Description: as §2

[7] = target: T5, cynomolgus monkey 4-1BB; assay: FACS, CHO-K1/cyno 4-1BB cells [A]
Description: as §2

[8] = target: T4, human 4-1BB; assay: FACS, CHO-K1/hu 4-1BB cells [C]
Description: as §2

[9] = target: T4, human 4-1BB; assay: FACS, CHO-K1/hu 4-1BB cells [D]
Description: (§3) Antibody binding experiments at the cellular level were conducted using a CHO-K1 cell strain overexpressing human 4-1BB (CHO-K1-hu 4-1BB, Genescript) and a CHO-K1 cell strain overexpressing cynomolgus monkey 4-1BB (CHO-K1-cyno 4-1BB, Genescript). Briefly, the CHO-K1-hu 4-1BB and CHO-K1-cyno 4-1BB cells were digested and resuspended in DMEM complete medium, and the cell density was adjusted to 1×10⁶ cells/mL. […] The cells were incubated at 4° C. for 1 h away from light. Thereafter, the cells in each well were rinsed twice with 100 μL of pre-cooled PBS, and centrifuged at 500 g at 4° C. for 5 min, and then the supernatant was discarded. […] The plate was incubated away from light at 4° C. for 30 min. The cells in each well were rinsed twice with 100 μL of pre-cooled PBS, and centrifuged at 500 g at 4° C. for 5 min, and then the supernatant was discarded. Finally, the cells in each well were resuspended in 200 μL of pre-cooled PBS, and the fluorescence signal values were read using a BD FACS CANTOII.

[10] = target: T5, cynomolgus monkey 4-1BB; assay: FACS, CHO-K1/cyno 4-1BB cells [D]
Description: as §2

[11] = target: T4, human 4-1BB; assay: FACS, CHO-K1/hu 4-1BB cells [E]
Description: as §3

[12] = target: T5, cynomolgus monkey 4-1BB; assay: FACS, CHO-K1/cyno 4-1BB cells [E]
Description: as §2

[13] = target: T5, cynomolgus monkey 4-1BB; assay: FACS, CHO-K1/cyno 4-1BB cells [B]
Description: as §2

[14] = target: T4, human 4-1BB; assay: FACS, CHO-K1/hu 4-1BB cells [F]
Description: as §2

[15] = target: T5, cynomolgus monkey 4-1BB; assay: FACS, CHO-K1/cyno 4-1BB cells [F]
Description: as §2

B1: PR001476 (antibody, human IgG1, kappa, V domains shown)
VH: QVQLVESGGGVVQPGRSLRLSCAASGFTFRSFGMHWVRQAPGKGLEWVAVISYDGSNEYYADSVKGRFIISRDNSKDTLYLQMNSLRAGDTAVYYCAKGGGLRWYFAYWGQGTLVTVSS
VL: EIVMTQSPATLSVSPGERATLSCRASQSISSNLGWYQQKPGQAPRLLIYGASTRATGIPARFSGSGSGTEFTLTISSLQSEDFAVYYCQQYNSWPPLTFGGGTKVEIKR
notes: anti-B7-H4 H2L2 recombinant fully human antibody, human IgG1 / kappa; also called 80C8-2E9 clone
[1]
  EC50: 0.367 nM
  Maximum MFI: 239000 MFI
[2]
  EC50: 3.61 nM
  Maximum MFI: 353000 MFI
[3]
  EC50: 1.1 nM
  Maximum MFI: 1.82e+06 MFI

B2: PR001768 (antibody, human IgG1, V domains shown)
VH: EVQLLESGGGLVQPGGSLRLSCAASGFTFSNYAMTWVRQAPGKGLEWVSSISGSGDSTYYADSVKGRFTISRDNSKNTLYLQMNSLRAEDTAVYYCAKEGTGTTSDYYYNVDVWGQGTTVTVSS
notes: anti-4-1BB HCAb, human IgG1 Fc
[4]
  EC50: 0.846 nM
  Maximum MFI: 1550 MFI
[5]
  EC50: 6.97 nM
  Maximum MFI: 62200 MFI

B3: PR001758 (antibody, human IgG1, V domains shown)
VH: EVQLLESGGGLVQLGGSLRLSCAASGFTFSRYAMTWVRQAPEKGLEWVSSISGSGDDTYYGDSVKGRFTISRDNSQNTVYLQMNSLRAEDTAVYFCAKEKAGTTGDYYYNVDVWGQGTTVTVSS
notes: anti-4-1BB fully human heavy-chain-only antibody (HCAb): VH fused to human IgG1 Fc
[6]
  EC50: 0.212 nM
  Maximum MFI: 1640 MFI
[7]
  EC50: 0.575 nM
  Maximum MFI: 11200 MFI

B4: PR001771 (antibody, human IgG1, V domains shown)
VH: EVQLLESGGGLVQPGGSLRLSCAASGFTFSNYAMTWVRQPPGKGLEWVSSISGSGGSTYYADSVKGRFTISRDNSKNTLYLQMNSLRAEDTAVYYCAKEGTGTTSDYYYNVDVWGQGTTVTVSS
notes: as for B2
[8]
  EC50: 0.532 nM
  Maximum MFI: 1720 MFI
[5]
  EC50: 3.77 nM
  Maximum MFI: 65700 MFI

B5: PR001780 (antibody, human IgG1, V domains shown)
VH: EVQLLESGGGLIQPGGSLRLSCAASGFTFSSFAMTWVRQAPGKGLEWVSTISGSGDNTYYADSVKGRFTISRDNSKNTLYLQMNSLRAEDTAVYFCAKEDTAVASDYYYNIDVWGQGTTVTVSS
notes: as for B2
[9]
  EC50: 0.708 nM
  Maximum MFI: 1700 MFI
[10]
  EC50: 2.99 nM
  Maximum MFI: 55500 MFI

B6: PR001781 (antibody, human IgG1, V domains shown)
VH: EVQLLESGGGLVQLGGSLRLSCAASGFTFSSYAMTWVRQAPEKGLEWVSSISGSGGNTYYADSVKGRFTISRDNSKNTLYLQMNSLRAEDTAVYYCAKERTGTTGDYYYNVDVWGQGTTVTVSS
notes: as for B2
[9]
  EC50: 0.492 nM
  Maximum MFI: 1760 MFI
[10]
  EC50: 3.1 nM
  Maximum MFI: 58300 MFI

B7: PR001830 (antibody, human IgG1, V domains shown)
VH: EVQLLESGGGLVQPGGSLRLSCTASGFTFSNYAMSWVRQAPEKGLEWVSSISGSGGSTFYADSVKGRFTISRDNSKNTLYLQMNSLRAEDTAVYFCAKEGSSETDDHYYNVDVWGQGTTVTVSS
notes: as for B2
[11]
  EC50: 0.209 nM
  Maximum MFI: 1830 MFI
[12]
  EC50: 0.899 nM
  Maximum MFI: 14000 MFI

B8: PR001763 (antibody, human IgG1, V domains shown)
VH: EVQLLESGGGLVQPGGSLRLSCTASGFTFSNYAMSWVRQAPEKGLEWVSSISGSGGSTFYADSVKGRFTISRDNSKNTLYLQMNRLTAEDTAVYYCAKEGSNGTDDYHYDIDVWGQGTTVTVSS
notes: as for B2
[6]
  EC50: 0.616 nM
  Maximum MFI: 1600 MFI
[13]
  Maximum MFI: 57700 MFI

B9: PR001764 (antibody, human IgG1, V domains shown)
VH: EVQLLESGGGLVQPGGSLRLSCAASGFTFSSYAMSWVRQAPEKGLEWVSAISGGGGSTYYADSVKGRFTISRDNSKNTLYLQMDSLKAEDTAVYYCAKEGTTETDDYHYNMDVWGQGTTVTVSS
notes: as for B2
[4]
  EC50: 0.249 nM
  Maximum MFI: 1560 MFI
[13]
  EC50: 5.33 nM
  Maximum MFI: 77300 MFI

B10: PR001767 (antibody, human IgG1, V domains shown)
VH: EVQLVETGGGLIQPGGSLRLSCAASGFTVSSNYMSWVRQAPGKGLEWVSVIYSDGSTYYADSVKGRFTISRDNSKNTLYLQMNSLRAEDTAVYYCARDRYYGSGNYPTAYYGMDVRGQGTTVTVSS
notes: as for B2
[4]
  EC50: 5.87 nM
  Maximum MFI: 1450 MFI
[13]
  EC50: 25 nM
  Maximum MFI: 68400 MFI

B11: PR001774 (antibody, human IgG1, V domains shown)
VH: EVQLVESGGGLVQPGGSLRLSCAASGFTFSSFAMTWVRQAPEKGLEWVSTISGSGDTTYYADSVKGRFTISRDSSKNTLYLQMNSLRAEDSAVYFCAKEATAMASDYYYGVDVWGQGTTVTVSS
notes: as for B2
[8]
  EC50: 1.27 nM
  Maximum MFI: 1540 MFI
[5]
  EC50: 6.73 nM
  Maximum MFI: 48000 MFI

B12: PR001833 (antibody, human IgG1, V domains shown)
VH: EVQLLESGGGLVQPGGSLRLSCAASGFTFSSYAMSWVRQAPEKGLEWVSSISGSGGSTFYADSVKGRFTISRDNSKNTLYLQMNSLRAEDTAVYFCAKEGATETDDYHFNTDVWGQGTTVTVSS
notes: as for B2
[11]
  EC50: 0.21 nM
  Maximum MFI: 1710 MFI
[12]
  EC50: 1.02 nM
  Maximum MFI: 12600 MFI

B13: PR001836 (antibody, human IgG1, V domains shown)
VH: EVQLLESGGGLVQPGGSLRLSCAASGFIFSNFAMTWVRQPPEKGLKWVSSINGSGFNTYYTDSVKGRFTISRDNSRNTLYLQMNRLTAEDTAVYFCAKEGSSETDDHYYNVDVWGQGTTVTVSS
notes: as for B2
[14]
  EC50: 0.28 nM
  Maximum MFI: 1830 MFI
[12]
  EC50: 2.41 nM
  Maximum MFI: 15900 MFI

B14: PR001840 (antibody, human IgG1, V domains shown)
VH: EVQLVESGGGLVQPGGSLRLSCAASGFTFSSYWMHWVRQAPGKGLVWVSRINSDGSSTSYADSVQGRFTISRDNAKNTLYLQMNSLRAEDTAVYYCVRKGSSSYYHYSIEDDWGQGTLVTVSS
notes: as for B2
[14]
  EC50: 0.37 nM
  Maximum MFI: 1670 MFI
[15]
  EC50: 1.25 nM
  Maximum MFI: 7300 MFI

B15: PR002037 (antibody, human IgG1, kappa, V domains shown)
VH: QVQLVQSGAEVKKPGSSMRVSCKASEDTFSSYAISWVRQAPGQGLEWMGGTAPIFGTTNYAQKFQGRVTITADKSTSTAYMELSSLRSEDTAVYYCARGGPYFDYWGQGTLVTVSS
VL: EIVMTQSPASLSVSPGERATLSCRASQSVSSNLAWYQQKPGQAPRLLIYGASTRATGIPARVSGGGSGTEFTLTISSLQSEDFAVYCCQQYKNWPFTFGPGTKLEIKR
notes: also called 1025_B-1H11 clone
[1]
  EC50: 2.22 nM
  Maximum MFI: 257000 MFI
[2]
  EC50: 2.57 nM
  Maximum MFI: 1.69e+06 MFI
[3]
  EC50: 2.38 nM
  Maximum MFI: 1.92e+06 MFI

B16: PR002410 (antibody, human IgG1, kappa, V domains shown)
VH: QVQLVQSGAEVKKPGSSMRVSCKASEDTFSSYAISWVRQAPGQGLEWMGGTAPIFGTTNYAQKFQGRVTITADKSTSTAYMELSSLRSEDTAVYYCARGGPYFDYWGQGTLVTVSS
VL: EIVMTQSPASLSVSPGERATLSCRASQSVSSNLAWYQQKPGQAPRLLIYGASTRATGIPARVSGGGSGTEFTLTISSLQSEDFAVYYCQQYKNWPFTFGPGTKLEIKR
notes: anti-B7-H4 H2L2 recombinant fully human antibody, human IgG1 / kappa; also called PR002037 variant
[1]
  EC50: 1.87 nM
  Maximum MFI: 245000 MFI
[2]
  EC50: 2.38 nM
  Maximum MFI: 1.55e+06 MFI
[3]
  EC50: 2.08 nM
  Maximum MFI: 1.86e+06 MFI
